Data from article PMC2715241 (Nucleic Acids Research, 2009).

Target: the molecule itself
Assay: AUC

B1: histidine tagged MutL–NTD (domain or fragment, E. coli, UniProt P23367 1-375, looked up)
chain: MPIQVLPPQLANQIAAGEVVERPASVVKELVENSLDAGATRIDIDIERGGAKLIRIRDNGCGIKKDELALALARHATSKIASLDDLEAIISLGFRGEALASISSVSRLTLTSRTAEQQEAWQAYAEGRDMNVTVKPAAHPVGTTLEVLDLFYNTPARRKFLRTEKTEFNHIDEIIRRIALARFDVTINLSHNGKIVRQYRAVPEGGQKERRLGAICGTAFLEQALAIEWQHGDLTLRGWVADPNHTTPALAEIQYCYVNGRMMRDRLINHAIRQACEDKLGADQQPAFVLYLEIDPHQVDVNVHPAKHEVRFHQSRLVHDFIYQGVLSVLQQQLETPLPLDDEPQPAPRSIPENRVAAGRNHFAEPAAREPVAPR
stoichiometry N: 2
